Laboratory results reported in patent US20130315928A1.

Key:
[1] = target: equine choriogonadotropin (eCG) or PMSG (equine) (UniProt P01220); assay: ELISA on commercial eCG, antibody at 1 µg/ml
[2] = target: equine choriogonadotropin (eCG) or PMSG (equine) (UniProt P01220); assay: ELISA on commercial eCG, antibody at 10 µg/ml

Chain of equine choriogonadotropin (eCG) or PMSG (equine) (P01220 25-120 limits assumed, chain 1 of 2): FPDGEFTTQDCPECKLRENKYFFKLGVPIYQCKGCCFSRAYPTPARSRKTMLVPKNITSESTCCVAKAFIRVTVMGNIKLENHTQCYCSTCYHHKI
Chain of equine choriogonadotropin (eCG) or PMSG (equine) (P08751 21-169 limits assumed, chain 2 of 2, further chain): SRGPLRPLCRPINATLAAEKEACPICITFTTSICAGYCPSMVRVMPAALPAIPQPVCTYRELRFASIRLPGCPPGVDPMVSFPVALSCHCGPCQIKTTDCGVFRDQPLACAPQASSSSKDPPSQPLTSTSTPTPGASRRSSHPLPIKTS

## isotypic control (IgM directed against another type of antigen very remote from the gonadotropic hormones) (antibody)
[1]
  OD: 0.09 OD
[2]
  OD: 0.09 OD
